Measured values reported in the supplement of paper PMC12042874.
± gives the uncertainty stated by the source.

test: amyloid nucleation score (Sup35N fusion, yeast selection) (log enrichment); library NNK3; higher = more nucleation; inactive = no reads after selection
In short: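 The nucleation score is the log enrichment of output over input reads, calculated with DiMSum and centred on the mode score of non-aggregating sequences. Sequences with under 100 input reads were excluded. Reads came from Illumina sequencing of plasmid inserts from psi-negative yeast expressing Sup35N fused to peptides of 20 random codons, induced 24 hours with 100 μM copper sulfate and grown 7 days at 30°C without adenine and uracil.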

Row | Substance | amyloid nucleation score
1 | SVVSCMWMWHLVRYKH | -0.509 ± 1.8
2 | SVYNSYWKVQYRVVMS | 0.506 ± 0.21
3 | SVYTGISLSKFHGSPLVRV | -0.408 ± 1.2
4 | SWCQGNCGMLLAHRSYKRAY | -0.48 ± 0.55
5 | SWDVGGLYCKINGPIMLSLD | inactive
6 | SWFGLAIRSV | inactive
7 | SWFGYSVIDAKYGDIRTPVK | inactive
8 | SWFSVMGNVFRMHFERRYSV | inactive
9 | SWGPLINLRFQLLARCTPGL | inactive
10 | SWHDINVAFADSFIDSKETC | inactive
11 | SWIRRRPAVRLDRRMPRLAF | inactive
12 | SWRKCPNLPSCKTIPNAWVL | inactive
13 | SWSFDWFQSIVVGYLTCALA | inactive
14 | SWTQVKRYSRSTIAILAFHT | inactive
15 | SWVHVSTFWYVAFGFEKSAG | inactive
16 | SWWVTGIALEHGSGLTVQVH | inactive
17 | SYAANGVWRSYDLCYQCQKV | -0.712 ± 1.1
18 | SYCVRWNRIVDFVGSCRDHG | 1.11 ± 0.11
19 | SYFNRYRCSSCHKPGYDHTW | inactive
20 | SYGLKISLSHTFRSGRGMCG | inactive
21 | SYKPLVMWLMSGVSASGLMC | inactive
22 | SYLCSGWDRSWAGISCEHSE | inactive
23 | SYLFYMHSSVLGSLMGQRDH | inactive

Row | Substance | amyloid nucleation score
24 | SYLKRGKSVAIQLTYGS | 0.405 ± 0.67
25 | SYLSHNFNGECCTSLLMDNL | inactive
26 | SYMVKM | inactive
27 | SYMWPMSWQET | inactive
28 | SYRIIEWCSLGKDNLDIRTG | inactive
29 | SYRLCCSMIGFSTGGRSHVE | inactive
30 | SYSADLKLMIWSCLNLVVFQ | inactive
31 | SYSHRVVLRDTRTRQAKPRA | inactive
32 | SYVFTR | inactive
33 | SYVLLHHLLVMSWVRV | inactive
34 | SYVNIFHDGIIMNSYVAWGH | inactive
35 | SYVPSTMIRMIWIMAFHRGN | -0.024 ± 0.43
36 | SYWSYSSTFSILLSDSFAIS | inactive
37 | SYYYPNIVRIEHPHCTRHHA | inactive
38 | TACRFVSSRRELRIEVLTWF | -0.755 ± 1.8
39 | TADDNVIRLAYFNVTTPLWF | inactive
40 | TADYDYQAEVCCLVIMCVHN | inactive
41 | TAEDYFMKVY | inactive
42 | TAREMYSRKSRILRVILILS | inactive
43 | TARHKHGLSLCDGVADLRGC | inactive
44 | TARYIW | inactive
45 | TASRFFCRWVYFRKGVSRCS | inactive
46 | TASYSLVVVVENRKSCMVDN | inactive

Row | Substance | amyloid nucleation score
47 | TAVKTGGLLRVVALGNSLNA | 0.399 ± 0.24
48 | TAYVNSGVEIYGFSVTRNNS | 1.48 ± 0.11
49 | TCFKM | inactive
50 | TCHIRKWSEGWLKYMDCRSP | inactive
51 | TCKWFFHHAIDCLRKRISME | inactive
52 | TCLQVSTFFVQASKSLYLPI | 0.953 ± 0.11
53 | TCMPRFSALYICSGTLDKKL | inactive
54 | TCQRRYKKFS | -0.633 ± 0.52
55 | TCRQNFCYCLDVIVQSCLSS | inactive
56 | TCSVCMGQVTMVIRYVNSNC | inactive
57 | TCVKMDRRSLAINALLSYYR | inactive
58 | TCWFGIQLSGL | 0.651 ± 0.2
59 | TDHCMVGGMYLEPVTIFFEG | inactive
60 | TDLIIIRRPNFGKRGSGLGV | inactive
61 | TDNAVMGSHCI | inactive
62 | TDPGILYMSCIRVMLGLFWD | inactive
63 | TDRRKK | inactive
64 | TDTIKSVVYVSVLDGDYNSG | inactive
65 | TDVRFDRLTCCNSLIKITRW | 1.14 ± 0.082
66 | TDYPLLMLL | inactive
67 | TEFPQEEPGTSLAQFP | -0.69 ± 1.1
68 | TEISSSMSFVHNFIYVCDR | inactive
69 | TEYFWGNYRKLCCFWWWLGR | inactive

Row | Substance | amyloid nucleation score
70 | TEYRYVLSISCH | inactive
71 | TFCLSYFHLL | inactive
72 | TFEQVCVLL | inactive
73 | TFFWLLCN | inactive
74 | TFHLRDCKSF | 0.133 ± 1
75 | TFSISSGSASYCVSSVDSS | inactive
76 | TGEQECLKQMSISGNRIFVV | inactive
77 | TGFNASCCLLGSRCGAEKIL | 0.604 ± 0.18
78 | TGFSVFYSVYRRQGH | 0.912 ± 0.19
79 | TGIMIVNYLVSELKPRTIST | 0.923 ± 0.11
80 | TGISSNHKFMESIDSYVGTP | inactive
81 | TGLIWLCESNRMLTVGSSLR | inactive
82 | TGLKYRLY | inactive
83 | TGLLYFRFDCGSSIIRSRYY | 0.875 ± 0.1
84 | TGNDGYCVCSVCYLRICVAN | inactive
85 | TGQQE | inactive
86 | TGQYMYKWSGLRWSYGGTFA | inactive
87 | TGRYVNWRASLSFAYNRMMI | inactive
88 | TGVRMWFVG | inactive
89 | TGVWLRACSYEGEFGEDRKL | inactive
90 | THLRLIYITD | inactive
91 | THRFVVLCEIITNPTEMGSG | 0.703 ± 0.35
92 | THSPKISRFLDNSRMRQFFT | inactive

Row | Substance | amyloid nucleation score
93 | THSVIFRVRYHLSYNAIRIF | inactive
94 | TICVYHVSFCIQHRVSRGLL | -0.18 ± 0.36
95 | TIEYLAGYFILMSQILGGDV | inactive
96 | TIFVTTR | inactive
97 | TIHYG | inactive
98 | TIIDGLKCFFPAFFME | inactive
99 | TILSPMASSQNKCDKNPMLS | 1.19 ± 0.073
100 | TILWGLQTQTQNCVVWKLGR | 1.69 ± 0.12
101 | TINDLSCGASRDGWMPVYS | inactive
102 | TISCTDNFCSFILIRDGLTH | 1.96 ± 0.059
103 | TIYLDNTQLSLFRIGPVARR | 1.9 ± 0.094
104 | TKASKMTKQIF | inactive
105 | TKCNRALHMEVIIQATAVAR | inactive
106 | TKEAY | inactive
107 | TKGFTSLSTIFFKVNKFD | inactive
108 | TKIYVLLFTSLVLVDTVLFL | -0.002 ± 0.4
109 | TKSYSMVSPIRVLNTDLIY | inactive
110 | TLDLSHTMVCRLEYFSSAIG | inactive
111 | TLFFSNDRVRFGRSTSRCHM | inactive
112 | TLFLFIMVMGYSLANLVDSS | inactive
113 | TLKCQHCIHVLGCVDMLTNF | 1.46 ± 0.11
114 | TLKRWLNLDRSSYIRESIKR | inactive
115 | TLLPAVQIWHDIKHSTRTSW | inactive

Row | Substance | amyloid nucleation score
116 | TLNFMWASEVLVSMSVSNQL | inactive
117 | TLPKVMFVIQNYGFFSGFTL | 1.32 ± 0.079
118 | TLSAEGVRRLFTCACSYHEG | 0.532 ± 0.47
119 | TLSGLVWWCVVFAMAT | inactive
120 | TLSSLPVPL | inactive
121 | TLSWNISCVCSERPFFNMHV | inactive
122 | TLVFHISFGDLVHEILNCAV | 2.17 ± 0.088
123 | TLWYSFQKSSSNLTRSLGLK | inactive
124 | TLYWFHTGICAYRMWTSVFF | inactive
125 | TMLLLWYLHWSPAPRDCYLP | inactive
126 | TMRVVFRHKTVNRIEVKVYF | -0.234 ± 0.69
127 | TMSLTDYLCGCSWFWCKTSR | inactive
128 | TMYCLHLNIMSCWSNSTKKT | 2.57 ± 0.083
129 | TNIHKTVSMKW | inactive
130 | TNKLIKFLDFHVRRVAVVGE | inactive
131 | TNMYSDSVIYVMHYGIPGGP | 1.63 ± 0.092
132 | TNMYYSRVANDGIF | inactive
133 | TNRFSRWCIRRRMSAVRYIG | inactive
134 | TNRIHPFERVLFVCVSGQGV | inactive
135 | TNRRN | inactive
136 | TNRWSIFTVVLSTMNVASFV | 0.974 ± 0.18
137 | TNTNFSVRFRTTKWMAKRRA | 1.4 ± 0.11
138 | TNVAHSKSSHHAYFIDWIGQ | inactive

Row | Substance | amyloid nucleation score
139 | TNVCLRRFLVTSLNGWVDGN | inactive
140 | TNVLCRSTKNVFYTKGL | 0.368 ± 0.17
141 | TNVSKLLIMSFVCSIHRSHG | 0.816 ± 0.18
142 | TPDQDMLVMPWISYGGGYWR | inactive
143 | TPMIVPLMNSQVVYTLFTTK | 2.11 ± 0.076
144 | TPMRHYKY | inactive
145 | TPQPLIIAQIVASPSEKKLL | inactive
146 | TPSGCAFNHCVMGTGDFQYM | 2.38 ± 0.073
147 | TQCEVYCIYGVTHGLE | inactive
148 | TQCSNTGCCIEGNLT | inactive
149 | TQLHGDLYWLVRMRVWIVEI | inactive
150 | TRAPVECNLCIGIEKDEVVR | inactive
151 | TRFDSVVMRKFYWVGSVRGL | inactive
152 | TRFSVDVRIFWIINYFLWLL | inactive
153 | TRISTG | inactive
154 | TRLLVWSETIAVWVRLQN | inactive
155 | TRMRTCSKRY | inactive
156 | TRNWLDSRKLD | inactive
157 | TRPSTIHFPVWFVGKSCRCD | inactive
